From article PMC2947474 (Molecular Biology of the Cell, 2010) come the findings set out here.

One test deals with T1, V5-tagged Vps53 (human, UniProt Q5VIR6 1-832).
T1 sequence: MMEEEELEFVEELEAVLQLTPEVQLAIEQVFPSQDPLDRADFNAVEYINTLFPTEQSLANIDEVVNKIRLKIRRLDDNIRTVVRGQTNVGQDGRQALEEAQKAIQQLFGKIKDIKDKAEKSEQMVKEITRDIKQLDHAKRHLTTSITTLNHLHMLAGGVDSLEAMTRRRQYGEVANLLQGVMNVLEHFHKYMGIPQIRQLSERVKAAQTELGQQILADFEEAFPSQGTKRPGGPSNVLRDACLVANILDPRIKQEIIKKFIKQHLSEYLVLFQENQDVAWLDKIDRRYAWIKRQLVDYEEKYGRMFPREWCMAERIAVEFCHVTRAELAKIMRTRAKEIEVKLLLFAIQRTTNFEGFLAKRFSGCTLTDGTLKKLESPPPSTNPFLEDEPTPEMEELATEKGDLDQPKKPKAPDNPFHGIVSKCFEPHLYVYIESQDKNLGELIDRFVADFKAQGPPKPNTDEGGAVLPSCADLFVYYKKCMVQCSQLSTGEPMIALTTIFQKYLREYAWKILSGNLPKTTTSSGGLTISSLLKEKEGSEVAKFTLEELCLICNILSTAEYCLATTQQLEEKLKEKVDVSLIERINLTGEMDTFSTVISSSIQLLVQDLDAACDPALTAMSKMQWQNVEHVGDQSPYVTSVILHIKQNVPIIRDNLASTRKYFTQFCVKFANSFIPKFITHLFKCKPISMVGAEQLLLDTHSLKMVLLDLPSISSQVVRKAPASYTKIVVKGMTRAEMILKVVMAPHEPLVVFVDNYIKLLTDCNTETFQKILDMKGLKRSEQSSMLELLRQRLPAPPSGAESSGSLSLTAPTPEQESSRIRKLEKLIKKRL
As to the kind of experiment: sedimentation velocity on glycerol gradient + SEC.

A further test concerns the target T2, V5-tagged Vps54 (human, UniProt Q9P1Q0 1-977).
T2 sequence: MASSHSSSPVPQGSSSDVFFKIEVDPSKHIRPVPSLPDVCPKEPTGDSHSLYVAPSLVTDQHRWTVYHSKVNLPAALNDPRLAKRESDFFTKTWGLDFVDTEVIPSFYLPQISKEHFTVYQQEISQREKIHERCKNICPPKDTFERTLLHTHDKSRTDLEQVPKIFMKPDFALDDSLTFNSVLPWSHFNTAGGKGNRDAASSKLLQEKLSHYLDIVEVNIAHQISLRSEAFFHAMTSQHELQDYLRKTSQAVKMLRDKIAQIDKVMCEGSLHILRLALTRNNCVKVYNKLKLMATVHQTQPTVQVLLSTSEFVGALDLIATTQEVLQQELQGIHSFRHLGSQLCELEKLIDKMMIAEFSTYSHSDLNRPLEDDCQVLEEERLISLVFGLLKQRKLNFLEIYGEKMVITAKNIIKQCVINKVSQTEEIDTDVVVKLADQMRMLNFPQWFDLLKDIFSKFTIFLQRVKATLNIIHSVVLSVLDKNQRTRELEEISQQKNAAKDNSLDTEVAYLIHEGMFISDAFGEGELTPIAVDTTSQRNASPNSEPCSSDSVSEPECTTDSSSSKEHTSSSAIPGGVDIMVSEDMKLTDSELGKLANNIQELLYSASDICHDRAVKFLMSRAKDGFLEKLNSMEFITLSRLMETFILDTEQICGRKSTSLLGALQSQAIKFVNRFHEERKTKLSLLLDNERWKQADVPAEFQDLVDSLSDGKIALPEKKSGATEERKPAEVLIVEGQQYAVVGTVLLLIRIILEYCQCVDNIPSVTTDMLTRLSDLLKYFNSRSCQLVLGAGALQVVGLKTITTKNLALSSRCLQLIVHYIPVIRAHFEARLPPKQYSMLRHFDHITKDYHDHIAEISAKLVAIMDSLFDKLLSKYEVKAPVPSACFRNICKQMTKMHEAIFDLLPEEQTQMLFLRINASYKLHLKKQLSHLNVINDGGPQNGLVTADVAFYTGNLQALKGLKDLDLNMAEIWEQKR
As to the kind of experiment: sedimentation velocity on glycerol gradient + SEC.

B1: V5-tagged human Ang2 (natural protein)
chain: MAAAAAAGPSPGSGPGDSPEGPEGEAPERRRKAHGMLKLYYGLSEGEAAGRPAGPDPLDPTDLNGAHFDPEVYLDKLRRECPLAQLMDSETDMVRQIRALDSDMQTLVYENYNKFISATDTIRKMKNDFRKMEDEMDRLATNMAVITDFSARISATLQDRHERITKLAGVHALLRKLQFLFELPSRLTKCVELGAYGQAVRYQGRAQAVLQQYQHLPSFRAIQDDCQVITARLAQQLRQRFREGGSGAPEQAECVELLLALGEPAEELCEEFLAHARGRLEKELRNLEAELGPSPPAPDVLEFTDHGGSGFVGGLCQVAAAYQELFAAQGPAGAEKLAAFARQLGSRYFALVERRLAQEQGGGDNSLLVRALDRFHRRLRAPGALLAAAGLADAATEIVERVARERLGHHLQGLRAAFLGCLTDVRQALAAPRVAGKEGPGLAELLANVASSILSHIKASLAAVHLFTAKEVSFSNKPYFRGEFCSQGVREGLIVGFVHSMCQTAQSFCDSPGEKGGATPPALLLLLSRLCLDYETATISYILTLTDEQFLVQDQFPVTPVSTLCAEARETARRLLTHYVKVQGLVISQMLRKSVETRDWLSTLEPRNVRAVMKRVVEDTTAIDVQVGLLYEEGVRKAQSSDSSKRTFSVYSSSRQQGRYAPSYTPSAPMDTNLLSNIQKLFSERIDVFSPVEFNKVSVLTGIIKISLKTLLECVRLRTFGRFGLQQVQVDCHFLQLYLWRFVADEELVHLLLDEVVASAALRCPDPVPMEPSVVEVICERG
B1: the “stoichiometry N” value with V5-tagged Vps53 and with V5-tagged Vps54 was 1 each time.

A word on the stoichiometry N: it is a count of units in the complex or per binding partner.
